Paper PMC10215022

Assays:
[1] = target: SARS-CoV-2 Omicron (B.1.1.529) spike protein, plate-bound (MSD V-PLEX) (SARS-CoV-2 Omicron (B.1.1.529)) (UniProt P0DTC2)
[2] = target: SARS-CoV-2 Omicron (B.1.1.529) spike protein RBD, His-tagged (SARS-CoV-2 Omicron (B.1.1.529)) (UniProt P0DTC2); test: SPR

In the case of “REGEN-COV mAb cocktail (casirivimab and imdevimab at 1:1 molar ratio)”, the IC50 [1] is reported as 13 nM.

Substance casirivimab (REGN10933) (antibody) has a Kd [2] of 1200 nM.
